Consider one protein from US20080248054.

In this data set the target is Jun kinase JNK1, Q91Y86.
Sequence of Jun kinase JNK1, Q91Y86 (Q91Y86 whole entry): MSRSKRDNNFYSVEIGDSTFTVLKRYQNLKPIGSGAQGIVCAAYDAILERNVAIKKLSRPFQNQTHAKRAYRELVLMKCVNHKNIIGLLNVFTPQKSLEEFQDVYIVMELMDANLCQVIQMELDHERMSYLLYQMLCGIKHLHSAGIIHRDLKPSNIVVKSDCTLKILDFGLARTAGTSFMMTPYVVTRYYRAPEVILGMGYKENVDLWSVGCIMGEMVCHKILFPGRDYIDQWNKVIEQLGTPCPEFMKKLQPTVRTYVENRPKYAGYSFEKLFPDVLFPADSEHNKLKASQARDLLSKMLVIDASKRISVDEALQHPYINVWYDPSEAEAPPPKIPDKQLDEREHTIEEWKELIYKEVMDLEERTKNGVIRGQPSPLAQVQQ

B1: murine MINK (Misshapen/NIKs-related kinase) (protein)
chain: MGDPAPARSLDDIDLSALRDPAGIFELVEVVGNGTYGQVYKGRHVKTGQLAAIKVMDVTEDEEEEIKQEINMLKKYSHHRNIATYYGAFIKKSPPGNDDQLWLVMEFCGAGSVTDLVKNTKGNALKEDCIAYICREILRGLAHLHAHKVIHRDIKGQNVLLTENAEVKLVDFGVSAQLDRTVGRRNTFIGTPYWMAPEVIACDENPDATYDYRSDIWSLGITAIEMAEGAPPLCDMHPMRALFLIPRNPPPRLKSKKWSKKFTDFIDTCLIKTYLSRPPTEQLLKFPFIRDQPTERQVRIQLKDHIDRSRKKRGEKEETEYEYSGSEEEDDSHGEEGEPSSIMNVPGESTLRREFLRLQQENKSNSEALKQQQQLQQQQQRDPEAHIKHLLHQRQRRIEEQKEERRRVEEQQRREREQRKLQEKEQQRRLEDMQALRREEERRQAEREQEYKRKQLEEQRQSERLQRQLQQEHAYLKSLQQQQQQQQLQKQQQQQQQILPGDRKPLYHYGRGINPADKPAWAREVEERARMNKQQNSPLAKRSQAGAGPEPPISQASPSPPGPLSQTPPMQRPVEPQEGPHKSLVAHRVPLKPYAAPVPRSQSLQDQPTRNLAAFPASHDPDPAAVPTPTATPSARGAVIRQNSDPTSEGPGPSPNPPSWVRPDNEAPPKVPQRTSSIATALNTSGAGGSRPAQAVRASNPDLRRSDPGWERSDSVLPASHGHLPQAGSLERNRNRVGASTKLDSSPVLSPGNKAKPEDHRSRPGRPADFVLLKERTLDEAPKPPKKAMDYSSSSEEVESSEEEEEEGDGEPSEGSRDTPGGRSDGDTDSVTTMVVHDVEEISGTQPSYGGGTMVVQRTPEEERSLLLADSNGYTNLPDVVQPSHSPTENSKGQSPPTKDGGSDYQSRGLVKAPGKSSFTMFVDLGIYQPGGSGDTIPITALVGGEGGRLDQLQFDVRKGSVVNVNPTNTRAHSETPEIRKYKKRFNSEILCAALWGVNLLVGTENGLMLLDRSGQGKVYGLIGRRRFQQMDVLEGLNLLITISGKRNKLRVYYLSWLRNKILHNDPEVEKKQGWTTVGDMEGCGHYRVVKYERIKFLVIALKNSVEVYAWAPKPYHKFMAFKSFADLPHRPLLVDLTVEEGQRLKVIYGSSAGFHAVDVDSGNSYDIYIPVHIQSQITPHAIIFLPNTDGMEMLLCYEDEGVYVNTYGRIIKDVVLQWGEMPTSVAYICSNQIMGWGEKAIEIRSVETGHLDGVFMHKRAQRLKFLCERNDKVFFASVRSGGSSQVYFMTLNRNCIMNW
Consider B1, for which the “levels of phosphorylated JNK in DP thymocytes after CD3/CD28 ligation (Western blot, anti-phospho-JNK1)” value is recorded as “MINK-deficient DP thymocytes express markedly reduced levels of phosphorylated JNK compared with control mice after CD3/CD28 ligation”.
